Experimental data reported in the Human Domainome abundance scans (Beltran et al. 2025).

B1: SH3 and PX domain-containing protein 2B, residues 155 to 209; numbered along this chain, A1X283 (parent)
chain: EQYVVVANYQKQESSEISLSVGQVVDIIEKNESGWWFVSTAEEQGWVPATCLEGQ
B2: WW domain-containing transcription regulator protein 1, residues 116 to 162; numbered along this chain, Q9GZV5 (parent)
chain: QSYDVTDELPLPPGWEMTFTATGQRYFLNHIEKITTWQDPRKAMNQP

Variants of: B1
Assay: abundance fitness (aPCA) (normalised: wild type 0, dead -1); higher = more abundant; growth selection in yeast, the domain comes from the species named
Details: Homo sapiens

Abundance fitness of substitutions, site by site:
E1: K 0.042, G -0.315, V -0.035, I -0.299, S -0.177, L -0.001, D -0.108, A -0.364, R -0.469, M -0.329
Y3: A 0.106, F -0.053, S 0.039, V -0.073, L -0.237, N -0.268, C -0.349, G 0.003, E -0.114, T -0.06, R -0.127, D -0.162, K -0.035, W -0.324, I -0.175, P -0.585, Q -0.17, H -0.537
Y9: R -0.21, I -0.809, S -0.484, F 0.011, A -0.774, K -0.619, M -0.508, G -0.81, Q -0.744, V -0.249, E -0.597, T -0.312, N -0.616, W 0.094, C -0.648, D -0.491
A7: C -0.25, N -0.09, L -0.101, M -0.15, Q -0.106, R -0.066, G -0.098, I -0.32, W -0.286, F -0.076, E -0.088, H -0.394, D -0.046, Y 0.025, K -0.024, S -0.052
V6: P -0.529, G -0.151, L -0.199, S -0.087, Q -0.199, A 0.049, I 0.054, Y -0.262, N -0.214, K 0.056, W -0.326, E -0.366, C -0.151, F -0.131
V4: Q -0.018, Y 0.046, W -0.271, A -0.047, L 0.075, N -0.139, M -0.463, G -0.265, E 0.003, S 0.083, D -0.148, R 0.077, C -0.01, H -0.308, I 0.082, F -0.061, T 0.193
Q10: F -0.257, D -0.266, T -0.058, H -0.145, E 0.125, L -0.044, A 0.003, W -0.334, K -0.192, C -0.135, Y -0.333, R -0.071, I -0.128, G -0.322, M -0.476
N8: P -0.069, L -0.447, T 0.018, K -0.083, M -0.305, F -0.26, Q -0.105, G 0.012, D 0.04, E -0.068, W -0.524, H -0.102, V -0.296, A 0.093, Y -0.448, I -0.501
V5: D -0.999, K -0.552, P -0.892, M -0.418, L -0.919, T -0.309, G -0.37, S -0.099, I -0.379, F -0.875, R -1.04, W -0.938, E -0.939, H -1.08, Q -0.994, C -0.108, N -0.946
Q2: T -0.148, F -0.185, N 0.13, I -0.347, H -0.178, E -0.328, G -0.082, A -0.247, W -0.415, C -0.086, D -0.378, Y -0.29, K -0.062, P -0.068, S -0.058, V 0.012, L -0.189, R -0.167

Variants of: B2
Assay: as above
Details: Homo sapiens

Abundance fitness of substitutions, site by site:
Q38: L -0.031, K -0.037, T -0.095, D -0.129, A -0.103, I 0.005, P -0.879, M -0.044, N -0.104, S -0.109, H -0.096, F -0.086, R -0.017, C -0.085, G -0.264, W -0.112, E -0.117, V -0.108
M44: F 0.068, P -0.068, I -0.244, G 0.004, Q -0.014, R -0.06, K -0.033, L -0.012, E 0.03, S -0.089, H -0.085, V -0.045, A 0.005, W -0.15, C -0.02, Y 0.014, N -0.215, T -0.028, D 0.076
P40: I -0.97, S -0.983, E -0.757, R -0.999, W -1, Q -0.774, Y -1.07, N -0.796, A -0.767, L -0.987, K -0.834, H -0.988, C -0.92, T -0.857, D -0.914, F -1.09
R41: A -0.5, K -0.688, C -0.689, D -0.806, G -0.628, L -0.747, I -0.603, Y -1.11, W -0.689, N -0.505, Q -0.447, P -0.785, M -0.703, H -0.719, F -0.902, V -0.518, E -0.73, T -0.4
W37: R -0.392, L -0.296, N -0.364, Q -0.328, S -0.324, V -0.348, K -0.305, Y -0.073, P -0.51, M -0.265
A43: W 0.086, S 0.01, Y -0.127, F -0.016, G -0.013, K -0.006, C -0.056, V -0.025, Q -0.056, D 0.071, L -0.008, I -0.073, E -0.018, T 0.027, P -0.014, N 0.046, M -0.038
D39: R -0.452, M -0.789, E -0.536, K -0.736, I -0.469, C -0.572, V -0.721, L -0.599, P -0.588, G -0.747, F -0.618, S -0.719, H -0.202, Q -0.911, Y -0.709, T -0.761
P47: T -0.148, N -0.84, L 0.053, G -0.677, S -0.125, A -0.06, H -0.577
N45: Q -0.223, S -0.093, C -0.089, I -0.084, K -0.052, A -0.018, W -0.043, L -0.118, R -0.109, G -0.04, M -0.023, P -0.135, H -0.09, D -0.092, T -0.044, Y 0.039, E -0.125, V -0.056
Q46: N -0.067, C -0.021, G -0.058, S -0.053, R -0.156, I -0.044, F 0.04, T -0.058, V -0.018, W -0.046, H -0.394, E 0.037, D 0.058, Y -0.221, L -0.022, M -0.098, P 0.026, A -0.138, K -0.164
K42: Q -0.105, R -0.111, E -0.052, F -0.128, Y -0.164, H -0.061, W -0.304, A -0.113, D -0.26, T -0.073, M -0.202, S -0.203, L -0.111, N 0.045, C -0.097, P -0.161, V -0.166, I -0.038, G -0.141
